This is an account of results in doi:10.1101/2021.08.20.457142.

B1: MKK6 D-site peptide / p38-alpha (MAPK14) L195A, full length (parent complex)
chain 1: SQSKGKKRNPGLKIPKEAFEQP
chain 2: MSQERPTFYRQELNKTVWEVPERYQNLSPVGSGAYGSVCAAFDTKTGHRVAVKKLSRPFQSIIHAKRTYRELRLLKHMKHENVIGLLDVFTPARSLEEFNDVYLVTHLMGADLNNIVKCQKLTDDHVQFLIYQILRGLKYIHSADIIHRDLKPSNLAVNEDCELKILDFGLARHTDDEMTGYVATRWYRAPEIMANWMHYNQTVDIWSVGCIMAELLTGRTLFPGTDHIDQLKLILRLVGTPGAELLKKISSESARNYIQSLAQMPKMNFANVFIGANPLAVDLLEKMLVLDSDKRITAAQALAHAYFAQYHDPDDEPVAEPYDQSFESRDFLIDEWKSLTYDEVISFVPPPLDQEEMES

This experiment covers variants of B1.
chain 1 SQSKGKKRNPGMKIPKEAFEQP [chain 1 L12M]: the screen value is 0.044 Z-score of the enrichment rate within one screen of 711 sequences.

For chain 1 SQSKGKKRNPGSKIPKEAFEQP [chain 1 L12S], the screen value is -1.12 Z-score of the enrichment rate within one screen of 711 sequences. Then chain 1 SQSKGKKRNPGPKIPKEAFEQP [chain 1 L12P], with -0.143 Z-score of the enrichment rate within one screen of 711 sequences; and chain 1 SQSKGKKRNPGWKIPKEAFEQP [chain 1 L12W], with -0.0439 Z-score of the enrichment rate within one screen of 711 sequences.

Consider chain 1 SQSKGKKRNPGCKIPKEAFEQP [chain 1 L12C], for which the screen value is -0.618 Z-score of the enrichment rate within one screen of 711 sequences. Then chain 1 SQSKGKKRNPGQKIPKEAFEQP [chain 1 L12Q], with -1.19 Z-score of the enrichment rate within one screen of 711 sequences; and chain 1 SQSKGKKRAPGLKIPAEAFEQP [chain 1 N9A, chain 1 K16A], with 0.162 Z-score of the enrichment rate within one screen of 711 sequences. Consider chain 1 SQSKAKKRNPGLAIPKEAFEQP [chain 1 G5A, chain 1 K13A], for which the screen value was -0.263 Z-score of the enrichment rate within one screen of 711 sequences. The result for chain 1 SQSKGKKRNPALAIPKEAFEQP [chain 1 G11A, chain 1 K13A] reads -0.412 Z-score of the enrichment rate within one screen of 711 sequences; that for chain 1 SQSKGKKRNPGLKIPREAFEQP [chain 1 K16R], 1.75 Z-score of the enrichment rate within one screen of 711 sequences; that for chain 1 SQSKGKKRNPGLKIPYEAFEQP [chain 1 K16Y], -0.107 Z-score of the enrichment rate within one screen of 711 sequences.

As for chain 1 SQSKGKKRNPGLKIPVEAFEQP [chain 1 K16V], the screen value is 0.706 Z-score of the enrichment rate within one screen of 711 sequences. Then chain 1 SQSKGKKRNPGLKIPFEAFEQP [chain 1 K16F], with 0.506 Z-score of the enrichment rate within one screen of 711 sequences. As to chain 1 SQSKGKKRNPGLKAPAEAFEQP [chain 1 I14A, chain 1 K16A], the screen value is -0.243 Z-score of the enrichment rate within one screen of 711 sequences.

Consider chain 1 SQSKGKARNPGLKAPKEAFEQP [chain 1 K7A, chain 1 I14A], for which the screen value is -1.1 Z-score of the enrichment rate within one screen of 711 sequences. Then chain 1 SQSKAKKRNPALKIPKEAFEQP [chain 1 G5A, chain 1 G11A], with 1.18 Z-score of the enrichment rate within one screen of 711 sequences; and chain 1 SQSKGLKRNPGLKIPKEAFEQP [chain 1 K6L], with 1.2 Z-score of the enrichment rate within one screen of 711 sequences; and chain 1 SQSKGCKRNPGLKIPKEAFEQP [chain 1 K6C], with 0.831 Z-score of the enrichment rate within one screen of 711 sequences. Then chain 1 SQSKGYKRNPGLKIPKEAFEQP [chain 1 K6Y], with 0.469 Z-score of the enrichment rate within one screen of 711 sequences; and chain 1 SQSKGHKRNPGLKIPKEAFEQP [chain 1 K6H], with 0.638 Z-score of the enrichment rate within one screen of 711 sequences; and chain 1 SQSKGGKRNPGLKIPKEAFEQP [chain 1 K6G], with 0.521 Z-score of the enrichment rate within one screen of 711 sequences.

Turning to chain 1 SQSKGFKRNPGLKIPKEAFEQP [chain 1 K6F], the screen value is 1.13 Z-score of the enrichment rate within one screen of 711 sequences. The result for chain 1 SQSKGQKRNPGLKIPKEAFEQP [chain 1 K6Q] reads 0.371 Z-score of the enrichment rate within one screen of 711 sequences; that for chain 1 SQSKGMKRNPGLKIPKEAFEQP [chain 1 K6M], 1.22 Z-score of the enrichment rate within one screen of 711 sequences. Then chain 1 SQSKGKARAPGLKIPKEAFEQP [chain 1 K7A, chain 1 N9A], with 0.105 Z-score of the enrichment rate within one screen of 711 sequences; and chain 1 SQSKGKKRAPGLKIAKEAFEQP [chain 1 N9A, chain 1 P15A], with 1.61 Z-score of the enrichment rate within one screen of 711 sequences; and chain 1 SQRKGKKRNPGLKIPKEAFEQP [chain 1 S3R], with 2.3 Z-score of the enrichment rate within one screen of 711 sequences.

As for chain 1 SQGKGKKRNPGLKIPKEAFEQP [chain 1 S3G], the screen value is 1.64 Z-score of the enrichment rate within one screen of 711 sequences. Then chain 1 SQQKGKKRNPGLKIPKEAFEQP [chain 1 S3Q], with 1.81 Z-score of the enrichment rate within one screen of 711 sequences; and chain 1 SQAKGKKRNPGLKIPKEAFEQP [chain 1 S3A], with 1.56 Z-score of the enrichment rate within one screen of 711 sequences; and chain 1 SQYKGKKRNPGLKIPKEAFEQP [chain 1 S3Y], with 1.82 Z-score of the enrichment rate within one screen of 711 sequences. Then chain 1 SQSKGKKRNPGAKIAKEAFEQP [chain 1 L12A, chain 1 P15A], with -0.373 Z-score of the enrichment rate within one screen of 711 sequences.

Regarding chain 1 SQSKGAKRNPGLKIAKEAFEQP [chain 1 K6A, chain 1 P15A], the screen value was 1.01 Z-score of the enrichment rate within one screen of 711 sequences. For the variant chain 1 SQSKAAKRNPGLKIPKEAFEQP [chain 1 G5A, chain 1 K6A], the screen value was 1.13 Z-score of the enrichment rate within one screen of 711 sequences. Then chain 1 SQSKGKKRNRGLKIPKEAFEQP [chain 1 P10R], with 1.04 Z-score of the enrichment rate within one screen of 711 sequences.

As for chain 1 SQSKGKKRNHGLKIPKEAFEQP [chain 1 P10H], the screen value is 1.57 Z-score of the enrichment rate within one screen of 711 sequences. Then chain 1 SQSKGKKRNNGLKIPKEAFEQP [chain 1 P10N], with 0.284 Z-score of the enrichment rate within one screen of 711 sequences; and chain 1 SQSKGKKRNQGLKIPKEAFEQP [chain 1 P10Q], with 0.417 Z-score of the enrichment rate within one screen of 711 sequences.

For the variant chain 1 SQSKGKKRNIGLKIPKEAFEQP [chain 1 P10I], the screen value is 0.802 Z-score of the enrichment rate within one screen of 711 sequences.

For chain 1 SQSKGKKRNEGLKIPKEAFEQP [chain 1 P10E], the screen value is -0.594 Z-score of the enrichment rate within one screen of 711 sequences. In the case of chain 1 SQAKGAKRNPGLKIPKEAFEQP [chain 1 S3A, chain 1 K6A], the screen value was 0.57 Z-score of the enrichment rate within one screen of 711 sequences.

Turning to chain 1 SQSAGKKRNPALKIPKEAFEQP [chain 1 K4A, chain 1 G11A], the screen value was 0.565 Z-score of the enrichment rate within one screen of 711 sequences. The result for chain 1 SQSAGKKRNPGLAIPKEAFEQP [chain 1 K4A, chain 1 K13A] reads -0.724 Z-score of the enrichment rate within one screen of 711 sequences; that for chain 1 SQSKAKKRNPGLKIPAEAFEQP [chain 1 G5A, chain 1 K16A], 0.905 Z-score of the enrichment rate within one screen of 711 sequences.

Consider chain 1 SQSKGKKRNPGLYIPKEAFEQP [chain 1 K13Y], for which the screen value was -0.0639 Z-score of the enrichment rate within one screen of 711 sequences.

Consider chain 1 SQSKGKKRNPGLQIPKEAFEQP [chain 1 K13Q], for which the screen value was -0.188 Z-score of the enrichment rate within one screen of 711 sequences. With chain 1 SQSKGKKRNPGLMIPKEAFEQP [chain 1 K13M], the screen value was 0.213 Z-score of the enrichment rate within one screen of 711 sequences. Then chain 1 SQSKAKKANPGLKIPKEAFEQP [chain 1 G5A, chain 1 R8A], with -0.162 Z-score of the enrichment rate within one screen of 711 sequences; and chain 1 SQSKRKKRNPGLKIPKEAFEQP [chain 1 G5R], with 3.17 Z-score of the enrichment rate within one screen of 711 sequences. Take chain 1 SQSKPKKRNPGLKIPKEAFEQP [chain 1 G5P]: the screen value is 1.65 Z-score of the enrichment rate within one screen of 711 sequences.
